Experimental data published in patent US20050182242A1, “Global analysis of protein activities using proteome chips” (priority 2001, published 2005).

B1: Spt2p: transcription factor, negative regulator of HO gene transcription (protein, UniProt P06843 2-333, looked up)
Protein SPT2: SFLSKLSQIRKSTTASKAQVQDPLPKKNDEEYSLLPKNYIRDEDPAVKRLKELRRQELLKNGALAKKSGVKRKRGTSSGSEKKKIERNDDDEGGLGIRFKRSIGASHAPLKPVVRKKPEPIKKMSFEELMKQAENNEKQPPKVKSSEPVTKERPHFNKPGFKSSKRPQKKASPGATLRGVSSGGNSIKSSDSPKPVKLNLPTNGFAQPNRRLKEKLESRKQKSRYQDDYDEEDNDMDDFIEDDEDEGYHSKSKHSNGPGYDRDEIWAMFNRGKKRSEYDYDELEDDDMEANEMEILEEEEMARKMARLEDKREEAWLKKHEEEKRRRKKGIR
B2: Met30p: yeast protein with five WD-repeats that binds certain promoter regions (protein, UniProt P39014 1-640, looked up)
F-box protein MET30: MRRERQRMMSFEDKDKDDLDNSNSNNSSEMTDTAMMPPLKRLLITGSSDDLAQGSSGKKKMTMATRSPSSSPDLATNDSGTRVQPLPEYNFTKFCYRHNPDIQFSPTHTACYKQDLKRTQEINANIAKLPLQEQSDIHHIISKYSNSNDKIRKLILDGILSTSCFPQLSYISSLVTHMIKIDFISILPQELSLKILSYLDCQSLCNATRVCRKWQKLADDDRVWYHMCEQHIDRKCPNCGWGLPLLHMKRARIQQNSTGSSSNADIQTQTTRPWKVIYRERFKVESNWRKGHCRIQEFKGHMDGVLTLQFNYRLLFTGSYDSTIGIWDLFTGKLIRRLSGHSDGVKTLYFDDRKLITGSLDKTIRVWNYITGECISTYRGHSDSVLSVDSYQKVIVSGSADKTVKVWHVESRTCYTLRGHTEWVNCVKLHPKSFSCFSCSDDTTIRMWDIRTNSCLKVFRGHVGQVQKIIPLTIKDVENLATDNTSDGSSPQDDPTMTDGADESDTPSNEQETVLDENIPYPTHLLSCGLDNTIKLWDVKTGKCIRTQFGHVEGVWDIAADNFRIISGSHDGSIKVWDLQSGKCMHTFNGRRLQRETQHTQTQSLGDKVAPIACVCIGDSECFSGDEFGCVKMYKFDLND
B3: Trm2p: yeast protein involved in DNA repair and RNA processing/modification (protein, UniProt P33753 1-639, looked up)
tRNA …: MYEQFEFSFFFFENSDNKVKYKAHLISSIKRWSIITCMRCFWTVQKSIFKARFFACRNFVKKHNYKLISTMTGSTEMVPPTMKHTVDNKRLSSPLTDSGNRRTKKPKLRKYKAKKVETTSPMGVLEFEVNDLLKSQNLSREQVLNDVTSILNDKSSTDGPIVLQYHREVKNVKVLEITSNGNGLALIDNPVETEKKQVVIIPFGLPGDVVNIKVFKTHPYYVESDLLDVVEKSPMRRDDLIRDKYFGKSSGSQLEFLTYDDQLELKRKTIMNAYKFFAPRLVAEKLLPPFDTTVASPLQFGYRTKITPHFDMPKRKQKELSVRPPLGFGQKGRPQWRKDTLDIGGHGSILDIDECVLATEVLNKGLTNERRKFEQEFKNYKKGATILLRENTTILDPSKPTLEQLTEEASRDENGDISYVEVEDKKNNVRLAKTCVTNPRQIVTEYVDGYTFNFSAGEFFQNNNSILPIVTKYVRDNLQAPAKGDDNKTKFLVDAYCGSGLFSICSSKGVDKVIGVEISADSVSFAEKNAKANGVENCRFIVGKAEKLFESIDTPSENTSVILDPPRKGCDELFLKQLAAYNPAKIIYISCNVHSQARDVEYFLKETENGSAHQIESIRGFDFFPQTHHVESVCIMKRI
B4: Ypt31p: yeast protein with GTP-binding activity (protein, UniProt P38555 2-223, looked up)
GTP-binding protein YPT31/YPT8: SSEDYGYDYDLLFKIVLIGDSGVGKSNLLSRFTKNEFNMDSKSTIGVEFATRTLEIDGKRIKAQIWDTAGQERYRAITSAYYRGAVGALIVYDISKSSSYENCNHWLSELRENADDNVAVGLIGNKSDLAHLRAVPTEESKTFAQENQLLFTETSALNSENVDKAFEELINTIYQKVSKHQMDLGDSSANGNANGASAPNGPTISLTPTPNENKKANGNNCC
B5: Sqt1p: yeast protein that interacts with Rp110p (protein, UniProt P35184 1-431, looked up)
Ribosome assembly protein SQT1: MEPQEEFITTEEVEQEIVPTVEVEQDVPVDIEGENDDDDEMMNDDEEALEVDMSNNSLTYFDKHTDSVFAIGHHPNLPLVCTGGGDNLAHLWTSHSQPPKFAGTLTGYGESVISCSFTSEGGFLVTADMSGKVLVHMGQKGGAQWKLASQMQEVEEIVWLKTHPTIARTFAFGATDGSVWCYQINEQDGSLEQLMSGFVHQQDCSMGEFINTDKGENTLELVTCSLDSTIVAWNCFTGQQLFKITQAEIKGLEAPWISLSLAPETLTKGNSGVVACGSNNGLLAVINCNNGGAILHLSTVIELKPEQDELDASIESISWSSKFSLMAIGLVCGEILLYDTSAWRVRHKFVLEDSVTKLMFDNDDLFASCINGKVYQFNARTGQEKFVCVGHNMGVLDFILLHPVANTGTEQKRKVITAGDEGVSLVFEVPN
B6: Ils1p: isoleucyl-tRNA synthetase (protein, UniProt P09436 1-1072, looked up)
Isoleucine--tRNA ligase, …: MSESNAHFSFPKEEEKVLSLWDEIDAFHTSLELTKDKPEFSFFDGPPFATGTPHYGHILASTIKDIVPRYATMTGHHVERRFGWDTHGVPIEHIIDKKLGITGKDDVFKYGLENYNNECRSIVMTYASDWRKTIGRLGRWIDFDNDYKTMYPSFMESTWWAFKQLHEKGQVYRGFKVMPYSTGLTTPLSNFEAQQNYKDVNDPAVTIGFNVIGQEKTQLVAWTTTPWTLPSNLSLCVNADFEYVKIYDETRDRYFILLESLIKTLYKKPKNEKYKIVEKIKGSDLVGLKYEPLFPYFAEQFHETAFRVISDDYVTSDSGTGIVHNAPAFGEEDNAACLKNGVISEDSVLPNAIDDLGRFTKDVPDFEGVYVKDADKLIIKYLTNTGNLLLASQIRHSYPFCWRSDTPLLYRSVPAWFVRVKNIVPQMLDSVMKSHWVPNTIKEKRFANWIANARDWNVSRNRYWGTPIPLWVSDDFEEVVCVGSIKELEELTGVRNITDLHRDVIDKLTIPSKQGKGDLKRIEEVFDCWFESGSMPYASQHYPFENTEKFDERVPANFISEGLDQTRGWFYTLAVLGTHLFGSVPYKNVIVSGIVLAADGRKMSKSLKNYPDPSIVLNKYGADALRLYLINSPVLKAESLKFKEEGVKEVVSKVLLPWWNSFKFLDGQIALLKKMSNIDFQYDDSVKSDNVMDRWILASMQSLVQFIHEEMGQYKLYTVVPKLLNFIDELTNWYIRFNRRRLKGENGVEDCLKALNSLFDALFTFVRAMAPFTPFLSESIYLRLKEYIPEAVLAKYGKDGRSVHFLSYPVVKKEYFDEAIETAVSRMQSVIDLGRNIREKKTISLKTPLKTLVILHSDESYLKDVEALKNYIIEELNVRDVVITSDEAKYGVEYKAVADWPVLGKKLKKDAKKVKDALPSVTSEQVREYLESGKLEVAGIELVKGDLNAIRGLPESAVQAGQETRTDQDVLIIMDTNIYSELKSEGLARELVNRIQKLRKKCGLEATDDVLVEYELVKDTIDFEAIVKEHFDMLSKTCRSDIAKYDGSKTDPIGDEEQSINDTIFKLKVFKL

Tested on: total yeast genomic DNA
Assay: Yeast proteome chip probed with labeled genomic DNA
Assay type: binding
Settings: Cy3-labeled genomic DNA, visual inspection
Description: Protein-DNA and protein-RNA interactions are important for many fundamental biological functions such as transcription regulation, chromosome segregation and maintenance, and RNA transport and processing (Williamson, 2000, Nat. Struct. Biol. 7(10):834-7). To explore the possibility of using a proteome chip to identify proteins that bind to DNA or RNA molecules, total yeast genomic DNA was labeled using Cy3-CTP and Klenow fragment, and polyA^+ was labeled using a biotinylated psoralen-derivative (31). Each probe was incubated with a different proteome chip (FIG. 3A).
The protein-nucleic acid interaction was assayed as follows. The nucleic acid robes were labeled as described by Winzeler et al. (1999, Science 285:901). Blocked proteome chips were washed three to five times in PBS buffer, and the extra liquid on the glass surface was removed by tapping the slides vertically on a KIMWIPE™. 200 μl of labeled nuclei acid probe ([…] poly(dC/dG); 100-300 mM NaCl; 50-300 mM HEPES, pH 7.0-8.5; 10 mM MgCl2) was added to the proteome chip and immediately covered by a hydrophobic plastic cover slip (GRACE BIO-LABS™, USA). After trapped air bubbles were removed, the chip was incubated in a humidity chamber in the dark at room temperature (“RT”) for one hour. To remove the cover slip, the chip was immersed into large volume of PBS buffer(>50 ml), so that the slip would float away. The chip was then moved to a second PBS bath (>50 ml) and washed 3×5 min with shaking in the dark at RT. To completely remove the liquid on the chip, the chip was spun to dryness at 1500-2000 rpm for 5-10 min at RT.

| Molecule | binding of genomic DNA probe |
| --- | --- |
| B1 | identified |
| B2 | identified |
| B3 | identified |
| B4 | bind the DNA probe |
| B5 | tested positive |
| B6 | identified |
